Measured values published in patent US8703143.

Tests used:
[1] = target: human plasma fibronectin (human) (UniProt P02751); assay: ELISA on coated antigen, background subtracted
[2] = target: large isoform of tenascin-C (UniProt P24821); assay: ELISA on coated antigen, background subtracted
Chain of large isoform of tenascin-C (P24821 23-2201): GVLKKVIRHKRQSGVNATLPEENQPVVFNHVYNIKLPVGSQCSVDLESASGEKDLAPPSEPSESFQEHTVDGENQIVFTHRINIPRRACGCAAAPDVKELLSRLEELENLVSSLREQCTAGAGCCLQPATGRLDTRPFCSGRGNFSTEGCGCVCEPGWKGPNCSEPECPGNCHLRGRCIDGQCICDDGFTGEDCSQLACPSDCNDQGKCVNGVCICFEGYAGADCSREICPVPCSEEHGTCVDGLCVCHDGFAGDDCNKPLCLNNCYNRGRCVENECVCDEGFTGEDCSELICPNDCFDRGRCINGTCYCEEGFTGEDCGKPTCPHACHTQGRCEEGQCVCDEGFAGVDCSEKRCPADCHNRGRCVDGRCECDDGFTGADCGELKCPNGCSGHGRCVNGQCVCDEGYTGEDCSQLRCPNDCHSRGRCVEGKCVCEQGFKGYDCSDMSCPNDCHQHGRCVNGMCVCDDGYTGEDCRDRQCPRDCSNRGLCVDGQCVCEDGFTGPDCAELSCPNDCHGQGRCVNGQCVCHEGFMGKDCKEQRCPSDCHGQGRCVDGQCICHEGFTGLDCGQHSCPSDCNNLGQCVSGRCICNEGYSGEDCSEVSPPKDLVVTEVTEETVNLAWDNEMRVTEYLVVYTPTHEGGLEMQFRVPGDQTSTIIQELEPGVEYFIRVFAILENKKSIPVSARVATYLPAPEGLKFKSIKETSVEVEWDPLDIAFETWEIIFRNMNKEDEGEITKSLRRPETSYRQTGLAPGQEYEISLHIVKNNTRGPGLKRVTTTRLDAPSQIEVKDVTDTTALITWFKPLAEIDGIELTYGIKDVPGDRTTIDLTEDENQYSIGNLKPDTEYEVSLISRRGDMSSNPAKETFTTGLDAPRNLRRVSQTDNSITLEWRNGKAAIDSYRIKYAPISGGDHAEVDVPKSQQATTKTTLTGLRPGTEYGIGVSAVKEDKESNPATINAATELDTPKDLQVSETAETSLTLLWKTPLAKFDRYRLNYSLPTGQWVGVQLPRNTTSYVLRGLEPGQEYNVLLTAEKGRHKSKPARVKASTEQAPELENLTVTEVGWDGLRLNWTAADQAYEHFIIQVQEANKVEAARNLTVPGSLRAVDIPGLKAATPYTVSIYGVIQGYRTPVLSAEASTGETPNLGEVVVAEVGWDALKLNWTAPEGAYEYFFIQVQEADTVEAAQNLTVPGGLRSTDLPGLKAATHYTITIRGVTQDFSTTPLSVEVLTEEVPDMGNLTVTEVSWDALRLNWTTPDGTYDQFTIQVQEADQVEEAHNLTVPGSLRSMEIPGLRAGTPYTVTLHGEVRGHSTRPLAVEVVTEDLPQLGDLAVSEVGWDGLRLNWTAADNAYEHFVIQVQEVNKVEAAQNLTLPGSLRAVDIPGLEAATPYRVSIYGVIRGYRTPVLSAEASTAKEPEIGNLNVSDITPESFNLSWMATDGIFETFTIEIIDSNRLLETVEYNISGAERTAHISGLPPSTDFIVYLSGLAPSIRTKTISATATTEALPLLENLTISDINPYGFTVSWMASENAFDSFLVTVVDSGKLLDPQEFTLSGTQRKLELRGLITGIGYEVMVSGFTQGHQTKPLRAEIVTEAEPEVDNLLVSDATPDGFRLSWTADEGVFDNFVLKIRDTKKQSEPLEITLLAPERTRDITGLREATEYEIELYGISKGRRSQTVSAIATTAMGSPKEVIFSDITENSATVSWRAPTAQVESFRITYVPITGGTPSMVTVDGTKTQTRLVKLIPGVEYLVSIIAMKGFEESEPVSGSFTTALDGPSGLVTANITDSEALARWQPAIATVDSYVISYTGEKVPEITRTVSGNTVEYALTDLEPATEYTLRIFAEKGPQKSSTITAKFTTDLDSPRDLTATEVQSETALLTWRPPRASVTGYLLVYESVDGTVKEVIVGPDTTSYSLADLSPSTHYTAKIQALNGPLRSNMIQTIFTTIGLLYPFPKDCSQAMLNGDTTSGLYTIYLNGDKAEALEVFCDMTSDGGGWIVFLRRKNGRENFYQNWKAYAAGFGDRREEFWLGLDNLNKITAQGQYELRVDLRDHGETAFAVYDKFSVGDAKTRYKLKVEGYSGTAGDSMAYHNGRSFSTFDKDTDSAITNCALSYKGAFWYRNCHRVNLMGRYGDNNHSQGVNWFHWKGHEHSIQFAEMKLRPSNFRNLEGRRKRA

B1: scFv CGS-1 (scFv, V domains shown)
VH: QVQLVESGGGLVQPGGSLRLSCAVSGFTFSSYAMSWVRQAPGKGLEWVSAISGSGGSTYYADSVKGRFTISRDNSKNTLYLQMNSLRAEDTAVYYCARSLPKWGQGTLVTVSR
VL: SSELTQDPAVSVALGQTVRITCQGDSLRSYYASWYQQKPGQAPVLVTYGKNNRPSGIPDRFSGSSSGNTASLTITGAQAEDEADYYCNSSPVVLNGVVFGGGTKLTVL
Work on B1 yielded an OD at 405 nm [1] of 0.07 OD 405 nm and an OD at 405 nm [2] of 0.01 OD 405 nm.
